Experimental data published in a protein production outcome set (Wang et al. 2014).

Experiment: label from the status in PepcDB records

Row | Sequence | protein production
1 | MADSKSFTFELNESVLTAQVGRLDEMAMVVEQRFSELKMTIEDVGNADPGSKISESLGGLQSGLGTISSAFGQLGSSSEAITSGFGTAVGSVGGITDAFKNLGSSVQNGTLFSSLATGIGGMSTMLGGVSGGVQGITNLASGFMELKNHLGGLMSSIGGVGGIMGKLTSPMGLVIIGIVALVAAFAYLMTTNESFRNTVMSVVTQVAQLFGQLVASLMPIIMQIVTAVMQIGAALMPMVMQFISFFAQLLAQLMPFINMLISMLMPVIMQIVQVVMSLVSALLPSIMTVIQGIMSVIQFLIPIIMQIATVVVQIVVTIISYISKIMPIVMTIIGVIVSIITTIISYVVIIATTIASVIGKIISFIASVITAVIGIVQPIIAFITNIFTTIVTIIGAAFQMVFTVASKIWNSIMSTISGIIDGIKAVITGISTTVSSVFNGVKRIITGVFDGIKSAWGGLTDFVGNIFDGVSSAIQTVVDNVKGFVNVVIRGINGAIGLINKIPGVEIGKIPQLISGTTNFQGGFARMNEGGRGEMVVLPSGSQVIPHDATMKYARESARGNKSMLYTSQGADLARVENLLERLLQKNPVIKMDDKVVAEVVSRNQANSFDQYNYTMGGAAYS | not failed
2 | MKYIINHSNDTAFNIALEEYAFKHLLDEDQIFLLWINKPSIIVGRHQNTIEEINRDYVRENGIEVVRRISGGGAVYHDLNNLNYTIISKEDENKAFDFKSFSTPVINTLAQLGVKAEFTGRNDLEIDGKKFCGNAQAYINGRIMHHGCLLFDVDLSVLANALKVSKDKFESKGVKSVRARVTNIINELPKKITVEKFRDLLLEYMKKEYPEMTEYVFSEEELAEINRIKDTKFGTWDWNYGKSPEFNVRRGIKFTSGKVEVFANVTESKIQDIKIYGDFFGIEDVAAVEDVLRGVKYEREDVLKALKTIDITRYFAGISREEIAEAVVG | not failed
3 | MSNNEPSSLKQSIKLAWPISLQSILVTMLGMSDIMMVGHLGDTAVASVGLGNRIQFVFLIILAGLASGVGTLSAQHFGAGQIGVIRQIIVKTLVIAAGILLPILLITFLFAGNIMGIATTDPSVINTGTSYLWLTMPSLIFVVVVMIFENALRGLGQVIFPMFISIIAIITNIILNYWLIKGGLGIEPMGVIGAALATLLARALHALLILTYLAKVKHSIFPTTFFCADFYNKQAWTKLLTLVWPMMLSFGVWSLGTFVYQLIYGRIGTQELAVMSLLAPIEGLLVSFFFGFASACAILVGQRLGKNEFSNAWSLAKNYAISAPIITFLLALILLQYQYLVFMPFSNLSSETITLSQEILVLICFGTCLKVFNMTIAMGILRAGGDNKYCMFIDISGMWIISIPLTFMAAFYFMLPLYWVALIAYSEEIIKAVMFIFRMKTRHWLKNLTAESMA | failed
4 | HSEPSHQSKAVVELPHKQGMARLAAGLLHPDMTIYLDAGTSTLEIVPHIIALSGMTVVTNDFGVVNALADAAHVDVIHTGGLLDHPNRSSVGGLAAATLRQLATDVAFMSTSSWDLQRGTTTPSALKVEVKQAAMQSASQTVLVATSSKY | failed
5 | MGSSSSFSSSSSKLLFRQLFENESSTFTYLLADVSHPDKPALLIDPVDKTVDRDLKLIDELGLKLIYAMNTHVHADHVTGTGLLKTKLPGVKSVISKASGSKADLFLEPGDKVSIGDIYLEVRATPGHTAGCVTYVTGEGADQPQPRMAFTGDAVLIRGCGRTDFQEGSSDQLYESVHSQIFTLPKDTLIYPAHDYKGFEVSTVGEEMQHNPRLTKDKETFKTIMSNLNLSYPKMIDVAVPANMVCGLQDVPSQAN | not failed
6 | MNMKLQVTVLKGDVIENGYEVVDAVEGNGNNDDSGDDGGEDEEGSADDAEGKETKKGPVSDPDLNGEAGDNDDEPEGDDGNDDEDDDNHENDDEDEEEDEDENDDGGEEDDDEDAEVEEEEEEEDEDDEEALQPPKKRKK | failed
7 | CSEVNVVKERPKTDEHKSYSCSFKGCTDVELVAVICPYCEKNFCLRHRHQSDHDCEKLEVAKPRMAATQKLVR | not failed
8 | KESLQVTLYRDNHAWCPYCQKVWLWLEEKQIPYRIKKVTMFCYGEKEDWYKKLVPSGMLPALELDGRFYTESDDILIALEKAFGPLLWAMEDPLVLPLRKLERLLFRAWCNWLCYPAM | failed
9 | MWNKLNKSMMFCQMMFGLSFYGVMVILTRFFLEELNYSEADTMMVVGAFSSIGPLFAIAGGFIADKFLGAYRSLTISYFGFATGYALLVLGSYTTNVPMALCGIALASYGRGLMSPSYPSLYKRTFDTQEHFENCYPVNYSVNNVGALLGQYLFPMFVLVLGFHGSFLLSCVLALLAFATLVIFRKPLLTVGAHIDQKPVSMQNWISFLITSVAMIALVFFMFSNMDIGQNIVYGIGLAAIGYFVILMLKSKKSDALKMGTILIMTALTTAFFVYYGQMMTSMTMVTINTMRGDLFDLIPIAPEASMAMNPLWCIVAGPVIAMIFSALEKRDIHFSTATKIGFAFILTAIAFGILTMAVMGVGEDAIIRPEVFLLIHFFQAFAEVIVGSLVVAFILSVAPKHIEGFSVSLFSVAMALSGIIGAVFSTSIAQEKGHVITQEFVQTVYGSYFQLLTVLAVVMVAIAFIASFIIRKMLESSKQAEEVELKEQKA | failed
10 | MVKLGCSFSGKPGKEAGDQDGAAMDSVPLISPLDVSQLQPSFSDQVVINTQTEYQLTSADQPKKFADLEGQRLACSHSEEGRRLPTARMIAFAMALLGCVLIMYKAIWYDQFTCPDGFLLRHKICTPLTLEMYYTEMDPERHRSILAAIGAYPLSRKHGTEMPAVWGNNYRTAKEEHKGTTPAAMAVSTAAAAAAAEGTEPSGKSLDTREKEDPQKAEGVPSQPPK | failed
11 | DIRPSKLLTWCQQQTEGYQHVNVTDLTTSWRSGLALCAIIHRFRPELINFDSLNEDDAVENNQLAFDVAEREFGIPPVTTGKEMASAQEPDKLSMVMYLSKFYELFRGTPLRPV | not failed
12 | MIGNPVIQVPSSLMPSSSMIACPRVSPNGVPYLPPKPRTRHLVVRAASNSDAAHGQPSSDGGKNPLTVVLDVPRNIWRQTLKPLSDFGFGKRSIWEGGVGLFIVSGATLLALSWAWLRGFQMRSKFRKYQTVFELSHASGICTGTPVRIRGVTVGTIIRVNPSLKNIEAVAEIEDDKIIIPRNSLVEVNQSGLLMETMIDIMPRNPIPEPSVGPLHPECGKEGLIVCDRQTIKGVQGVSLDELVGIFTRIGREVEAIGVANTYSLAERAASVIEEARPLLKKIQAMAEDAQPLLSEFRDSGLLKEVECLTRSLTQASDDLRKVNSSIMTPENTELIQKSIYTLVYTLKNVESISSDILGFTGDEATRKNLKLLIKSLSRLL | failed
13 | MKKTPIYVEISIQAEMERLWRYTQDPTLHRQWDLRFTDITYLKRRPGEPQRFLYETRIGFGLEHHHHHH | not failed
14 | MSGEKIDITPKKDGGVLKLIKKEGQGVVKPTTGTTVKVHYVGTLENGTKFDSSRDRGDQFSFNLGRGNVIKGWDLGVATMTKGEVAEFTIRSDYGYGDAGSPPKIPGGATLIFEVELFEWSAEDISPDRDGTILRTIIVEGSKNSFPNDTSKVLAHCVGTYQGTEFYNREVNFHIGEGSEEGLPEGVERALRRFQLGEKSKIEIRGHKYTYGNSPPAGSNIPVNATLEFTIFLKEFEKVPATWEMTAEEKLDAAKQAKDRGTMYLQKGNLKLAYNKYKRAEEVLEYEKSTDPEKMAERETILNGAYLNLSLVCSKQNEQLECIKWCDKVLETKPGNVKALYRKATALLTMNEVRDAMKLFEKIVEVEPENKAAAQQIIVCRNTIREQNERDKKRFKNLFAKISTEEDKPTNTVEDEDEIVASTSGSSTSNA | not failed
15 | MSVKSVLVFLSVSGSTMPMLILESDSIAEVKLRIQTCNGFRVRRQKLVFSGRELARNASRVKDYGVTGGSVLHLVLKLYDP | failed
16 | MLSFCPSCNNMLLITSGDSGVYTLACRSCPYEFPIEGIEIYDRKKLPRKEVDDVLGGGWDNVDQTKTQCPNYDTCGGESAYFFQLQIRSADEPMTTFYKCVNCGHRWKEN | failed
17 | MKVLLIQPPSSTAFMDKVYMYEPLGLEYLGAGLQEDGHEVLLLDARLEPDFEKAFHSFQPDIVGITGYTNHLNIVKAIAARFKSINPEVFIIVGGHHATVKPADYNDQAIDLIIIGEGVFTLRQVLKHKESLLPFEDIPGLAIPGAVMKFTAERPYTPLDDLPFPDRSLTARYRNHYFSDWMKPIASIRTSLGCFGRCNFCALWSITNGKYLQRNPERIVAELQGIQEEIVFFCDDESMCDTRRMDQLADLIQEAGIRKKYFLYGRVDTIVKHPELFAKWKNIGLIQVFVGFESFSDERLQGLNKNITVAQQEEAVKILNDLNIDIYASFVIDPSFTRQEFTQLIAYTRKLNIAYAALSVLTPLPGTALYEQNKDRLLTHDPKFFDFMHTVLPTALPLKQFYSEYARTLMKATPIPRYFRFIAKFDRQRRLSTMKELYGVVGDVRKGYQWHQAKES | failed
18 | MPPPTASTPDDSADPGPDFADVPPTDLVKVGFIFRPHGLDGELKIDPSATDDPARFEVLPTVFVGPHPRRVVRHDIASVRYQKTKRGITVILGLDGIVDRDDAEAVAKMDVFATEAALGLEDDELFADDLVGWTVVTEEGAVQGTVADFMEMPAQDLFVVRTPEDTEAMIPAIDDFIIEIDEEAERIVVRPIDGLMDALEHHHHHH | failed
19 | MQNELQKYDDTINIAFFGLDRRQKTDISRSDSIMILTMDPTHKKLKLSSIMRDTYVNVDGHGMTKITHAYAYGGPQLAIKTINENFNLNIKDYVTVDFYGLEKIIDKLNGVEVDVQPDEVNYLNSYIDEVSKYEKVTPNHVSSAGKQLLDGRQAVAYSRIRYTAGGDFQRTERQRTVLMAVFNKMKAQGKSNMLSMMDELLPYAETDLGSLDIAKYGAKFLSSNIDSIDQERFPVDGYCSGITVDNVWYLKTDLGVTSDQMKKYIFEDVKPTPKASLVNIPAKLEHHHHHH | not failed
20 | MDMKAPIKVYMTKKLLGVKPSTSVQEASRLMMEFDVGSLVVINDDGNVVGFFTKSDIIRRVIVPGLPYDIPVERIMTRNLITANVNTPLGEVLRKMAEHRIKHILIEEEGKIVGIFTLSDLLEASRRRLETAISAE | not failed
21 | MTVAPFDTAKLDRLMEEAGIDVIAATSKHNTQYLMGGYKFIFFAAMDAIGHSRYLPMVIYEKGAPDHSAYVGNRMEGAEHQNNPFWTPAVHTATWGTQDAAGLAVEHLKKIGKASGRIGIEPAFLPSDARDLLASRLDGARFVDATHVLERLRAVKTADELAKLRRASELITDSMLATIAAARAGSTKLEIIEQLRREETNRGLHFEYCLLTLGASHNRAGSPQAWAEGEILSIDSGGNYHGYIGDLCRMGVLGEPDAELEDLLAEVERIQQAAFAKVRAGVLGSEMIVAAEAELKASPSAAFTDFFCHGMGLITHEAPFLMTNHPVAYEGIDADKPLEAGNVISVETTMLHPKRGFIKLEDTLAITDKGYEMFGDRGRGLEHHHHHH | failed
22 | MELMIGRVVKSHGIRGEVAIEVTTEEPEIRFAQGEVLNGRQGGKEHSLTIASVRPHQNRLLVKFKEIADRTAADSLRGTRFFAAPLDDDVDDGFYDHELEGLAVIHGEEKIGEVSGVIHGPAQSLLEVTLESGKEVLIPFVHDIVPEVDLDAGTCVITPPEGLLELLEHHHHHH | not failed
23 | MWDSENIEELSLVIGIGLDKPDDENLELTQQILVPKIISAKEGSSSDPTQLSITKGKTVHQMMRTSALKHKPTFSQHLRLILLSKSVIADQIGMDAIINQFVRDNGTRRSSYVFITNGRTKDIFNMNDEGEPASNVIYDLTENNKVTIRTMEPVTLGEISEHLTSDDSFLIPHVGKENGKLAINGASIIKNKLWHRDLTPIEVQNISLFSGTVEGGVIDLKRDGHLFSYEVYSSNRKIKTAYKDGKFKFTVTRNIEGRLSEDWNPNEDSFKDSYIKSIEKTVEKRVHETVTSFITEKLQKEIKADVTGLGNEVRIHYPQKWKKISRKWDDDYFSNAEIDYRVNVIVRDFGTKGANKLEHHHHHH | not failed
